Consider one molecule from patent publication US20230175000, “MAIZE GENE ZMRAVL1 AND FUNCTIONAL SITE AND USE THEREOF” (CHINA AGRICULTURAL UNIVERSITY, published 2023).

In this data set the target is T1, DRL1 (Drooping leaf1, YABBY C2C2) (Zea mays, UniProt A0A804LG43 A0A804LG43:1-207).
T1 sequence: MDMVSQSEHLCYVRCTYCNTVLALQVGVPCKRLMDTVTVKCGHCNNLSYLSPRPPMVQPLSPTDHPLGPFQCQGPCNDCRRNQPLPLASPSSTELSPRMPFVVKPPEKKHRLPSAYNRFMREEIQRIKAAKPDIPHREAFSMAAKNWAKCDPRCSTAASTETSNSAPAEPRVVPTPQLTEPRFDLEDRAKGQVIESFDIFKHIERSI
Briefly: EMSA; room temperature 20 min; band slightly brighter than W22 probe; competed by unlabeled probe. The following applies: tags: His fusion (PET32a, E. coli Rosetta, nickel beads); label: biotin. As to the method:
EMSA (electrophoretic mobility shift assay) was carried out to validate the above speculation. First of all, biotin-labeled EMSA probes (UPA2-NIL^W22 biotin probes: UPA2-NIL^W22-F, UPA2-NIL^W22-R; UPA2-NIL^W22 competitive probe: UPA2-NIL^W22-com-F, UPA2-NIL^W22-com-R; UPA2-NIL⁸⁷⁵⁹ biotin probes: UPA2-NIL⁸⁷⁵⁹-F, UPA2-NIL⁸⁷⁵⁹-R; UPA2-NIL⁸⁷⁵⁹ competitive probe: UPA2-NIL⁸⁷⁵⁹-com-F, UPA2-NIL⁸⁷⁵⁹-com-R) were designed for the sequences of UPA2-NIL^W22 and UPA2-NIL⁸⁷⁵⁹ respectively. The probe included a C2C2-binding motif and upstream and downstream flanking sequences (each 22 bp). In the meantime, the corresponding sequences that were not labeled with biotin were synthesized as competitive probes. Next, the DRL1 CDS region was recombined onto a PET32a prokaryotic expression vector by a homologous recombination method to construct an expression vector of DRL1-His fusion proteins and it was introduced into the expression strain Rosetta to induce the expression of the DRL1-His fusion proteins. Finally, the DRL1-His fusion proteins were obtained through purification using Nickel beads. […]
Background: In EMSA bound probe runs differently from free probe, usually more slowly.

B1: UPA2-NIL8759 probe (dsDNA)
DNA 1: AACTGCGCATGCGCGCGCTGAGTGTGGTCCTTCTCTTTTAATTACTACTG
DNA 2: CAGTAGTAATTAAAAGAGAAGGACCACACTCAGCGCGCGCATGCGCAGTT
Consider B1, for which the binding result is given as “binds”.
